# Laboratory results published in US20040176301A1 (CYCLACEL, published 2004).
# Numbered stars: 1 amine (or outer) side, 2 acyl side, 3 side chain; on linkers, the order of the positions; unused ones are H or OH. Square brackets hold non-standard residues; d marks the D form. Ends that are not written are not given here. Dhp = dehydrophenylalanine, Z isomer, O=C(/C(=C/c1ccccc1)N[*:1])[*:2]; Phe(3R-OH) = O=C([C@@H](N[*:1])[C@H](O[*:3])c1ccccc1)[*:2]; 1Nal = N[C@@H](Cc1cccc2ccccc12)C(=O)O; Cha = N[C@@H](CC1CCCCC1)C(=O)O; Phe(ol) = N[C@H](CO)Cc1ccccc1; dPsa = D-O-acetylphenylserine; Phg = N[C@H](C(=O)O)c1ccccc1; Tle = CC(C)(C)[C@H](N)C(=O)O; Psa = O-acetylphenylserine; Nle = CCCC[C@H](N)C(=O)O; Nva = CCC[C@H](N)C(=O)O; Abu = CC[C@H](N)C(=O)O; dPse = D-phenylserine
# Target: T1, CDK2/Cyclin E complex (UniProt P24941 1-298; P24864 1-410)
# Assay: cell-based or functional assay
"% Inhibition, cyclin E/CDK2 kinase","IC50, cyclin E/CDK2 kinase, GST-pRb",Binder
80%,3.4 µM,HSKRRLIF-NH2 [p21 (152-159) HSKRRLIF-NH2]

# Target: T2, CDK4/Cyclin D1 complex (UniProt P11802 1-303; P24385 1-295)
# T2 sequence (P11802 other isoform, or with tags, fused parts or gaps, chain 1 of 2): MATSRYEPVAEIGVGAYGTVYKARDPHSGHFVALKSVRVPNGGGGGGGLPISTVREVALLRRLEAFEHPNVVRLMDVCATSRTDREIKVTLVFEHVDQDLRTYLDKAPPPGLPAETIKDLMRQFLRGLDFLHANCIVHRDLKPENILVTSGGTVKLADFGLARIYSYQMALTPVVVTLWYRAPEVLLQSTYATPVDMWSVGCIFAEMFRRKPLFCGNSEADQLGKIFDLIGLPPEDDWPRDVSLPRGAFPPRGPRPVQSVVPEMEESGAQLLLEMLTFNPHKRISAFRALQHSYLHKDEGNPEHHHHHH
# T2 sequence (P24385 whole entry, chain 2 of 2): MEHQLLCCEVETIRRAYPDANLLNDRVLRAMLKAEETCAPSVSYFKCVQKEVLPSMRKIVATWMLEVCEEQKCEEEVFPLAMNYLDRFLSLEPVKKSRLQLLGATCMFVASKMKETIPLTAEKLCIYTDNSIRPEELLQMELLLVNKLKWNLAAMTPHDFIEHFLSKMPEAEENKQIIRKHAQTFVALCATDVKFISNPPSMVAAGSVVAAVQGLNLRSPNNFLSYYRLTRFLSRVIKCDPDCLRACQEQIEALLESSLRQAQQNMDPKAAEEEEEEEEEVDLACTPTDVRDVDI
# Assay: cell-based or functional assay
row,"% Inhibition, cyclin D1/CDK4 kinase",Binder
1,72%,HSKRRLIF-NH2 [p21 (152-159) HSKRRLIF-NH2]

# Target: T1, CDK2/Cyclin E complex
# Assay: cell-based or functional assay
# Remark: another data set of the same source
"% Inhibition, cyclin E/CDK2 kinase","IC50, cyclin E/CDK2 kinase",Binder
78%,,KAXRRLIF (U at position 3 (read as Abu); C-terminal carboxamide) [P21 N-terminus-LIF hybrid KAURRLIF-NH2]
80%,3.4 µM,HSKRRLIF-NH2 [p21 (152-159) HSKRRLIF-NH2]
86%,0.074 µM,KA[Abu]RRLFG-NH2 [P21 N-terminus peptide KAURRLFG-NH2]

# Target: T2, CDK4/Cyclin D1 complex
# Assay: cell-based or functional assay
# Remark: another data set of the same source
"% Inhibition, cyclin D1/CDK4 kinase","IC50, cyclin D1/CDK4 kinase",Binder
83%,13 µM,KAXRRLIF (U at position 3 (read as Abu); C-terminal carboxamide) [P21 N-terminus-LIF hybrid KAURRLIF-NH2]
72%,,HSKRRLIF-NH2 [p21 (152-159) HSKRRLIF-NH2]
66%,42 µM,KA[Abu]RRLFG-NH2 [P21 N-terminus peptide KAURRLFG-NH2]

# Target: T3, CDK2/cyclin A (UniProt P24941 1-298; P20248 1-432)
# Assay: cell-based or functional assay
row,"Relative activity, Kinase Inhibition (CDK2/cyclin A kinase assay, pRb substrate, [ATP] = 100 µM)",Binder
1,0.2 relative to H-His-Ala-Lys-Arg-Arg-Leu-Ile-Phe-NH2 (=1),H-H[Tle]KRRLIF-NH2 (SMILES CC[C@H](C)[C@H](NC(=O)[C@H](CC(C)C)NC(=O)[C@H](CCCNC(=N)N)NC(=O)[C@H](CCCNC(=N)N)NC(=O)[C@H](CCCCN)NC(=O)[C@@H](NC(=O)[C@@H](N)Cc1c[nH]cn1)C(C)(C)C)C(=O)N[C@@H](Cc1ccccc1)C(N)=O) [H-His-Bug-Lys-Arg-Arg-Leu-Ile-Phe-NH2]
2,0.5 relative to H-His-Ala-Lys-Arg-Arg-Leu-Ile-Phe-NH2 (=1),H-HIKRRLIF-NH2 [H-His-Ile-Lys-Arg-Arg-Leu-Ile-Phe-NH2]
3,< 0.1 relative to H-His-Ala-Lys-Arg-Arg-Leu-Ile-Phe-NH2 (=1),H-H[Nva]KRRLIF-NH2 (SMILES CCC[C@H](NC(=O)[C@@H](N)Cc1c[nH]cn1)C(=O)N[C@@H](CCCCN)C(=O)N[C@@H](CCCNC(=N)N)C(=O)N[C@@H](CCCNC(=N)N)C(=O)N[C@@H](CC(C)C)C(=O)N[C@H](C(=O)N[C@@H](Cc1ccccc1)C(N)=O)[C@@H](C)CC) [H-His-Nva-Lys-Arg-Arg-Leu-Ile-Phe-NH2]
4,< 0.1 relative to H-His-Ala-Lys-Arg-Arg-Leu-Ile-Phe-NH2 (=1),"H-H[Phg]KRRLIF-NH2 (also: Phg racemic, mixture of diastereomers) [H-His-Phg-Lys-Arg-Arg-Leu-Ile-Phe-NH2]"
5,0.1 relative to H-His-Ala-Lys-Arg-Arg-Leu-Ile-Phe-NH2 (=1),H-HGKRRLIF-NH2 [H-His-Gly-Lys-Arg-Arg-Leu-Ile-Phe-NH2]
6,5 relative to H-His-Ala-Lys-Arg-Arg-Leu-Ile-Phe-NH2 (=1),H-H[Abu]KRRLIF-NH2 (SMILES CC[C@H](NC(=O)[C@@H](N)Cc1c[nH]cn1)C(=O)N[C@@H](CCCCN)C(=O)N[C@@H](CCCNC(=N)N)C(=O)N[C@@H](CCCNC(=N)N)C(=O)N[C@@H](CC(C)C)C(=O)N[C@H](C(=O)N[C@@H](Cc1ccccc1)C(N)=O)[C@@H](C)CC) [H-His-Abu-Lys-Arg-Arg-Leu-Ile-Phe-NH2]
7,2 relative to H-His-Ala-Lys-Arg-Arg-Leu-Ile-Phe-NH2 (=1),H-HVKRRLIF-NH2 [H-His-Val-Lys-Arg-Arg-Leu-Ile-Phe-NH2]
8,0.5 relative to H-His-Ala-Lys-Arg-Arg-Leu-Ile-Phe-NH2 (=1),H-HFKRRLIF-NH2 [H-His-Phe-Lys-Arg-Arg-Leu-Ile-Phe-NH2]

# Target: T3, CDK2/cyclin A
# Assay: cell-based or functional assay
# Remark: another data set of the same source
row,"Relative activity, Kinase Inhibition (CDK2/cyclin A kinase assay, pRb substrate, [ATP] = 100 µM)",Binder
1,< 0.1 relative to H-His-Ala-Lys-Arg-Arg-Leu-Ile-Phe-NH2 (=1),H-HAKRR[Cha]IF-NH2 (SMILES CC[C@H](C)[C@H](NC(=O)[C@H](CC1CCCCC1)NC(=O)[C@H](CCCNC(=N)N)NC(=O)[C@H](CCCNC(=N)N)NC(=O)[C@H](CCCCN)NC(=O)[C@H](C)NC(=O)[C@@H](N)Cc1c[nH]cn1)C(=O)N[C@@H](Cc1ccccc1)C(N)=O) [H-His-Ala-Lys-Arg-Arg-Cha-Ile-Phe-NH2]
2,< 0.1 relative to H-His-Ala-Lys-Arg-Arg-Leu-Ile-Phe-NH2 (=1),H-HAKRR[Nle]IF-NH2 (SMILES CCCC[C@H](NC(=O)[C@H](CCCNC(=N)N)NC(=O)[C@H](CCCNC(=N)N)NC(=O)[C@H](CCCCN)NC(=O)[C@H](C)NC(=O)[C@@H](N)Cc1c[nH]cn1)C(=O)N[C@H](C(=O)N[C@@H](Cc1ccccc1)C(N)=O)[C@@H](C)CC) [H-His-Ala-Lys-Arg-Arg-Nle-Ile-Phe-NH2]
3,< 0.1 relative to H-His-Ala-Lys-Arg-Arg-Leu-Ile-Phe-NH2 (=1),H-HAKRRVIF-NH2 [H-His-Ala-Lys-Arg-Arg-Val-Ile-Phe-NH2]
4,1.5 relative to H-His-Ala-Lys-Arg-Arg-Leu-Ile-Phe-NH2 (=1),H-HAKRRIIF-NH2 [H-His-Ala-Lys-Arg-Arg-Ile-Ile-Phe-NH2]
5,< 0.1 relative to H-His-Ala-Lys-Arg-Arg-Leu-Ile-Phe-NH2 (=1),H-HAKRR[Nva]IF-NH2 (SMILES CCC[C@H](NC(=O)[C@H](CCCNC(=N)N)NC(=O)[C@H](CCCNC(=N)N)NC(=O)[C@H](CCCCN)NC(=O)[C@H](C)NC(=O)[C@@H](N)Cc1c[nH]cn1)C(=O)N[C@H](C(=O)N[C@@H](Cc1ccccc1)C(N)=O)[C@@H](C)CC) [H-His-Ala-Lys-Arg-Arg-Nva-Ile-Phe-NH2]
6,< 0.1 relative to H-His-Ala-Lys-Arg-Arg-Leu-Ile-Phe-NH2 (=1),H-HAKRRFIF-NH2 [H-His-Ala-Lys-Arg-Arg-Phe-Ile-Phe-NH2]

# Target: T3, CDK2/cyclin A
# Assay: cell-based or functional assay
# Remark: another data set of the same source
row,"Relative activity, Kinase Inhibition (CDK2/cyclin A kinase assay, pRb substrate, [ATP] = 100 µM)",Binder
1,0.5 relative to H-His-Ala-Lys-Arg-Arg-Leu-Ile-Phe-NH2 (=1),H-HAKRRL[1Nal]F-NH2 (SMILES CC(C)C[C@H](NC(=O)[C@H](CCCNC(=N)N)NC(=O)[C@H](CCCNC(=N)N)NC(=O)[C@H](CCCCN)NC(=O)[C@H](C)NC(=O)[C@@H](N)Cc1c[nH]cn1)C(=O)N[C@@H](Cc1cccc2ccccc12)C(=O)N[C@@H](Cc1ccccc1)C(N)=O) [H-His-Ala-Lys-Arg-Arg-Leu-1Nap-Phe-NH2]
2,< 0.1 relative to H-His-Ala-Lys-Arg-Arg-Leu-Ile-Phe-NH2 (=1),H-HAKRRLF-NH2 [H-His-Ala-Lys-Arg-Arg-Leu-Phe-NH2]
3,0.3 relative to H-His-Ala-Lys-Arg-Arg-Leu-Ile-Phe-NH2 (=1),H-HAKRRL[Cha]F-NH2 (SMILES CC(C)C[C@H](NC(=O)[C@H](CCCNC(=N)N)NC(=O)[C@H](CCCNC(=N)N)NC(=O)[C@H](CCCCN)NC(=O)[C@H](C)NC(=O)[C@@H](N)Cc1c[nH]cn1)C(=O)N[C@@H](CC1CCCCC1)C(=O)N[C@@H](Cc1ccccc1)C(N)=O) [H-His-Ala-Lys-Arg-Arg-Leu-Cha-Phe-NH2]
4,0.8 relative to H-His-Ala-Lys-Arg-Arg-Leu-Ile-Phe-NH2 (=1),H-HAKRRLVF-NH2 [H-His-Ala-Lys-Arg-Arg-Leu-Val-Phe-NH2]
5,0.3 relative to H-His-Ala-Lys-Arg-Arg-Leu-Ile-Phe-NH2 (=1),H-HAKRRLAF-NH2 [H-His-Ala-Lys-Arg-Arg-Leu-Ala-Phe-NH2]
6,0.4 relative to H-His-Ala-Lys-Arg-Arg-Leu-Ile-Phe-NH2 (=1),H-HAKRRL[Nle]F-NH2 (SMILES CCCC[C@H](NC(=O)[C@H](CC(C)C)NC(=O)[C@H](CCCNC(=N)N)NC(=O)[C@H](CCCNC(=N)N)NC(=O)[C@H](CCCCN)NC(=O)[C@H](C)NC(=O)[C@@H](N)Cc1c[nH]cn1)C(=O)N[C@@H](Cc1ccccc1)C(N)=O) [H-His-Ala-Lys-Arg-Arg-Leu-Nle-Phe-NH2]
7,0.2 relative to H-His-Ala-Lys-Arg-Arg-Leu-Ile-Phe-NH2 (=1),H-HAKRRL[Nva]F-NH2 (SMILES CCC[C@H](NC(=O)[C@H](CC(C)C)NC(=O)[C@H](CCCNC(=N)N)NC(=O)[C@H](CCCNC(=N)N)NC(=O)[C@H](CCCCN)NC(=O)[C@H](C)NC(=O)[C@@H](N)Cc1c[nH]cn1)C(=O)N[C@@H](Cc1ccccc1)C(N)=O) [H-His-Ala-Lys-Arg-Arg-Leu-Nva-Phe-NH2]
8,1.2 relative to H-His-Ala-Lys-Arg-Arg-Leu-Ile-Phe-NH2 (=1),H-HAKRRLLF-NH2 [H-His-Ala-Lys-Arg-Arg-Leu-Leu-Phe-NH2]
9,0.4 relative to H-His-Ala-Lys-Arg-Arg-Leu-Ile-Phe-NH2 (=1),H-HAKRRLFF-NH2 [H-His-Ala-Lys-Arg-Arg-Leu-Phe-Phe-NH2]

# Target: T3, CDK2/cyclin A
# Assay: cell-based or functional assay
# Remark: another data set of the same source
row,"Relative activity, Kinase Inhibition (CDK2/cyclin A kinase assay, pRb substrate, [ATP] = 100 µM)",Binder
1,< 0.1 relative to H-His-Ala-Lys-Arg-Arg-Leu-Ile-Phe-NH2 (=1),H-HAKRRLI[dPse]-OH [H-His-Ala-Lys-Arg-Arg-Leu-Ile-D-Pse-OH]
2,< 0.1 relative to H-His-Ala-Lys-Arg-Arg-Leu-Ile-Phe-NH2 (=1),H-HAKRRLI[Phe(3R-OH)]-OH [H-His-Ala-Lys-Arg-Arg-Leu-Ile-L-Pse-OH]
3,< 0.1 relative to H-His-Ala-Lys-Arg-Arg-Leu-Ile-Phe-NH2 (=1),H-HAKRRLI[dPsa]-OH [H-His-Ala-Lys-Arg-Arg-Leu-Ile-D-Psa-OH]
4,< 0.1 relative to H-His-Ala-Lys-Arg-Arg-Leu-Ile-Phe-NH2 (=1),H-HSKRRLI[Psa]-OH [H-His-Ser-Lys-Arg-Arg-Leu-Ile-L-Psa-OH]
5,3.3 relative to H-His-Ala-Lys-Arg-Arg-Leu-Ile-Phe-NH2 (=1),H-HAKRRLI[Dhp]-OH (SMILES CC[C@H](C)[C@H](NC(=O)[C@H](CC(C)C)NC(=O)[C@H](CCCNC(=N)N)NC(=O)[C@H](CCCNC(=N)N)NC(=O)[C@H](CCCCN)NC(=O)[C@H](C)NC(=O)[C@@H](N)Cc1c[nH]cn1)C(=O)N/C(=C\c1ccccc1)C(=O)O) [H-His-Ala-Lys-Arg-Arg-Leu-Ile-Dhp-OH]
6,22 relative to H-His-Ala-Lys-Arg-Arg-Leu-Ile-Phe-NH2 (=1),H-HAKRRLI[Psa]-OH [H-His-Ala-Lys-Arg-Arg-Leu-Ile-[L-Psa]-OH]
7,< 0.1 relative to H-His-Ala-Lys-Arg-Arg-Leu-Ile-Phe-NH2 (=1),H-HSKRRLI[dPse]-OH [H-His-Ser-Lys-Arg-Arg-Leu-Ile-D-Pse-OH]
8,< 0.1 relative to H-His-Ala-Lys-Arg-Arg-Leu-Ile-Phe-NH2 (=1),H-HSKRRLI[dPsa]-OH [H-His-Ser-Lys-Arg-Arg-Leu-Ile-D-Psa-OH]
9,0.6 relative to H-His-Ala-Lys-Arg-Arg-Leu-Ile-Phe-NH2 (=1),H-HAKRRLI[Phe(ol)] [H-His-Ala-Lys-Arg-Arg-Leu-Ile-Pheol]
